Assay [1] has as its target HLA-B*44:02. The assay can be described thus: IEDB peptide-MHC binding, purified MHC/competitive/radioactivity; filed as Kd, often an IC50 or EC50 that approximates it; ≥ and ≤ were set here for values at or beyond the usual limits of such assays.
Assay [2] concerns the target HLA-B*18:01. The description is as above.
Assay [3] deals with HLA-B*40:01. The description is as above.
The target of assay [4] is HLA-B*40:02. The assay is described as above.
In assay [5] the target is HLA-B*45:01. The description is as above.
Assay [6] concerns the target HLA-B*44:03. The description is as above.
In assay [7] the target is HLA-A*30:01. The assay is described as above.
Assay [8] addresses HLA-A*31:01. In words: IEDB peptide-MHC binding, purified MHC/direct/fluorescence; filed as Kd, often an IC50 or EC50 that approximates it; ≥ and ≤ were set here for values at or beyond the usual limits of such assays.
The target in assay [9] is HLA-A*03:01. The assay is described as above.
Assay [10] concerns the target HLA-A*26:01. In words: IEDB peptide-MHC binding, purified MHC/competitive/radioactivity; filed as Kd, often an IC50 or EC50 that approximates it; ≥ and ≤ were set here for values at or beyond the usual limits of such assays.
Assay [11] has as its target HLA-A*01:01. The description is as above.
In assay [12] the target is HLA-A*24:02. The description is as above.
Assay [13] has as its target HLA-A*30:02. The description is as above.
Assay [14] deals with HLA-A*32:01. The description is as above.
Assay [15] addresses HLA-A*23:01. Described as above.
The target in assay [16] is HLA-A*29:02. The description is as above.
Assay [17] has as its target HLA-B*15:01. In words: IEDB peptide-MHC binding, purified MHC/direct/fluorescence; filed as Kd, often an IC50 or EC50 that approximates it; ≥ and ≤ were set here for values at or beyond the usual limits of such assays.
The target of assay [18] is HLA-A*02:01. The description is as above.
The target in assay [19] is HLA-B*35:01. In words: IEDB peptide-MHC binding, purified MHC/competitive/radioactivity; filed as Kd, often an IC50 or EC50 that approximates it; ≥ and ≤ were set here for values at or beyond the usual limits of such assays.
For assay [20], the target named is HLA-A*68:01. Described as above.
Assay [21] addresses HLA-A*31:01. The assay is described as above.
Assay [22] deals with HLA-A*03:01. Described as above.
In assay [23] the target is HLA-A*33:01. Described as above.
The target in assay [24] is HLA-B*53:01. Described as above. As to conditions: source organism: Dengue virus 4 Philippines/H241/1956.
The target in assay [25] is HLA-A*69:01. In words: IEDB peptide-MHC binding, purified MHC/direct/fluorescence; filed as Kd, often an IC50 or EC50 that approximates it; ≥ and ≤ were set here for values at or beyond the usual limits of such assays. To be noted: source organism: Rickettsia conorii.
Assay [26] deals with HLA-A*11:01. The description is as above. To be noted: source organism: Rickettsia conorii.
The target of assay [27] is HLA-B*58:01. Described as above. As to conditions: source organism: Rickettsia conorii.
The target of assay [28] is HLA-A*02:01. The assay can be described thus: IEDB peptide-MHC binding, purified MHC/competitive/fluorescence; filed as Kd, often an IC50 or EC50 that approximates it; ≥ and ≤ were set here for values at or beyond the usual limits of such assays. To be noted: source organism: Vaccinia virus WR 65-16.
The mark [29] stands for this setting: source organism: SARS coronavirus Tor2.
Where [30] appears, read: source organism: Vaccinia virus WR.
Where [31] appears, read: source organism: Giardia lamblia ATCC 50803.
Setting [32] is: source organism: Mammarenavirus lassaense.
Where [33] appears, read: source organism: Mammarenavirus brazilense.
Setting [34] is: source organism: Mammarenavirus juninense.
Where [35] appears, read: source organism: Haemophilus influenzae.
The mark [36] stands for this setting: source organism: Dengue virus 3 Martinique/1243/1999.
The mark [37] stands for this setting: source organism: Lymphocytic choriomeningitis virus (strain Armstrong).
Setting [38] is: source organism: Dengue virus 4 Philippines/H241/1956.
The mark [39] stands for this setting: source organism: Rickettsia conorii.
Setting [40] is: source organism: Mammarenavirus tacaribeense.
Where [41] appears, read: source organism: Entamoeba histolytica HM-1:IMSS.
[42] abbreviates: source organism: Mammarenavirus machupoense.

A value given as a limit tells only on which side of the number the result lay.

Usually Kd stands for the constant that tells how readily two partners part at equilibrium. For AEVEWKFYDA, the Kd in [1] (setting [29]) turned out to be 79 nM; in assay [2] (setting [29]) it was 1540 nM; in assay [3] (setting [29]) it was 8440 nM; in assay [4] (setting [29]), 4690 nM; in assay [5] (setting [29]), 5.54 nM; in assay [6] (setting [29]), 90.5 nM.
Take MSRRYSREK: the Kd in [7] (setting [30]) was 1.31 nM.
For the sequence QEAYYRARAG, the Kd was 954 nM in assay [1] (setting [29]); no less than 36100 nM in [2] (setting [29]); 12700 nM in [3] (setting [29]); 963 nM in assay [4] (setting [29]); 607 nM in assay [5] (setting [29]); 411 nM in assay [6] (setting [29]).
In the case of MNQERRSLR, the Kd in assay [8] (setting [31]) was 118 nM; in [9] (setting [31]), no less than 20000 nM.
In the case of FDAAVMGGF, the Kd in assay [1] (setting [32]) is no less than 27400 nM; in assay [2] (setting [32]), no less than 39800 nM; in assay [3] (setting [32]), no less than 32300 nM; in assay [4] (setting [32]) it was 5230 nM; in assay [5] (setting [32]), no less than 77700 nM; in assay [6] (setting [32]), 18400 nM.
FEHIVYGDF: the Kd in [1] (setting [29]) was 1870 nM; in assay [2] (setting [29]) it was 1260 nM; in assay [3] (setting [29]), 7140 nM; in assay [4] (setting [29]) it was 782 nM; in assay [5] (setting [29]) it was no less than 22300 nM; in assay [6] (setting [29]) it was 13100 nM.
As for GERSRCYSLY, the Kd in [7] (setting [33]) was 5430 nM; in [10] (setting [33]), no less than 69700 nM; in assay [11] (setting [33]), no less than 26700 nM; in assay [12] (setting [33]), no less than 70300 nM; in [13] (setting [33]), 718 nM; in assay [14] (setting [33]) it was no less than 69900 nM. For the same sequence, the values for the Kd in assay [15] (setting [33]) and in assay [16] (setting [33]) were no less than 70000 nM and 14400 nM, respectively.
In the case of REAACCHLA, the dissociation constant Kd is 3030 nM in assay [1] (setting [29]); no less than 31400 nM in assay [2] (setting [29]); 236 nM in [3] (setting [29]); 97.5 nM in assay [4] (setting [29]); 11.4 nM in assay [5] (setting [29]); 1910 nM in [6] (setting [29]).
As to SVIGTFVAEF, the equilibrium dissociation constant (Kd) in [7] (setting [34]) worked out at 2420 nM; in assay [10] (setting [34]), 3.37 nM; in [11] (setting [34]) it was 3580 nM; in [13] (setting [34]), 110 nM; in assay [14] (setting [34]), 195 nM; in [16] (setting [34]), 169 nM.
Consider GENAVIPKG, for which the Kd in assay [1] (setting [29]) is 2030 nM; in assay [2] (setting [29]), no less than 77500 nM; in assay [3] (setting [29]) it was no less than 76200 nM; in assay [4] (setting [29]) it was 907 nM; in assay [5] (setting [29]), 828 nM; in assay [6] (setting [29]), 2230 nM.
Turning to SIRRNLALK, the Kd in assay [7] (setting [30]) is 12.4 nM.
On the same count and under the same terms, the figure for KAMWKYPFS is 250 nM.
In the case of RMGVKSQLL, the Kd in assay [8] (setting [35]) is 2070 nM; in [17] (setting [35]) it was 1280 nM; in assay [9] (setting [35]), 18000 nM; in assay [18] (setting [35]), 3130 nM.
As for LAILFEEVM, the Kd in assay [19] (setting [36]) worked out at 33.1 nM.
In the case of KVRTNAAMG, the Kd in assay [7] (setting [36]) came to 11.3 nM.
Regarding ASKTINALV, the Kd in assay [7] (setting [30]) was found to be 0.175 nM.
With TTYLGPLSCK, the dissociation constant Kd amounted to 432 nM in assay [7] (setting [37]); 4.63 nM in assay [20] (setting [37]); 540 nM in [21] (setting [37]); 4.47 nM in [22] (setting [37]); 647 nM in [23] (setting [37]).
On to TVKDGRLGA, for which, in assay [7] (setting [30]), the Kd is 240 nM.
Consider NHALSELPET, for which the Kd in assay [7] (source organism: Dengue virus 2 Jamaica/1409/1983) was determined as 1240 nM.
As to NPRLCTREEF, the Kd in [24] came to 197 nM; in assay [19] (setting [38]) it was 892 nM.
Regarding KSKFPRSML, the dissociation constant (Kd) in [7] (setting [30]) was 31.2 nM.
Take KLNENIIRF: the Kd turned out to be 4750 nM in assay [25]; 5910 nM in assay [26]; 1280 nM in [8] (setting [39]); 152 nM in [17] (setting [39]); 68.6 nM in assay [27]; 554 nM in assay [9] (setting [39]). The same sequence came in with a Kd in assay [18] (setting [39]) of 1880 nM.
Turning to HTASGEHSL, the Kd in [7] (setting [33]) is 8480 nM; in assay [10] (setting [33]), 16500 nM; in [11] (setting [33]), no less than 25100 nM; in assay [13] (setting [33]), 5640 nM; in assay [14] (setting [33]), 11900 nM; in [16] (setting [33]), no less than 78900 nM.
In the case of CLRRRVTRK, the Kd was found to be 3140 nM in assay [7] (setting [38]) and 2.7 nM in [22] (setting [38]).
With HYDQKLGSY, the Kd in assay [7] (setting [40]) was 5540 nM; in assay [10] (setting [40]), no less than 36000 nM; in [11] (setting [40]), 11000 nM; in assay [13] (setting [40]), 89.8 nM; in [14] (setting [40]) it was 19400 nM; in [16] (setting [40]), no less than 20300 nM.
Take RAREQISNL: the Kd in assay [7] (source organism: Cowpox virus) was determined as 2.73 nM.
As to HIKNDFMIK, in assay [7] (setting [30]), the Kd was determined as 1.6 nM.
Take WYKVFVPRR: the Kd in assay [8] (setting [41]) was 102 nM; in assay [9] (setting [41]) it was no less than 20000 nM.
As for TLRAAMISL, the Kd in assay [7] (setting [30]) was found to be 0.714 nM; in [28], 2310 nM.
For the sequence ITTDSRCPTQ, in assay [7] (setting [36]), the Kd turned out to be 866 nM.
With SIQKNTIFK, the Kd is 62.6 nM in assay [7] (setting [42]); 162 nM in [20] (setting [42]); 1890 nM in assay [21] (setting [42]); 10.4 nM in assay [22] (setting [42]); no less than 22900 nM in assay [23] (setting [42]).
As to TARSNNRLA, in [7] (setting [30]), the Kd came out at 57.6 nM.
For the sequence AWRTATLIL, the Kd in assay [7] (setting [36]) is 592 nM.
As for KAKEMNALS, the Kd in assay [7] (setting [30]) is 50.5 nM.
YEDKVWDKY: the Kd in assay [7] (setting [37]) was no less than 32200 nM; in [10] (setting [37]), no less than 77900 nM; in assay [11] (setting [37]) it was 7020 nM; in [12] (setting [37]), no less than 77500 nM; in assay [13] (setting [37]), 2710 nM; in assay [14] (setting [37]), no less than 77800 nM. Further, the Kd in assay [15] (setting [37]) is no less than 77700 nM; in assay [16] (setting [37]) it was no less than 29900 nM.
Take AVDPAKAYK: the equilibrium dissociation constant (Kd) in assay [20] (setting [29]) amounted to 553 nM; in [23] (setting [29]), 3420 nM; in assay [8] (source organism: SARS-CoV1), 293 nM.

For the origin of these results see the Immune Epitope Database (IEDB).
